Data published in patent publication US20150252117A1 (Genentech, published 2015).
Residue numbers refer to the chain shown, from its start. Numbers in names are those of the source.

Key:
[1] = target: T1, Murine Jag1-DSL-EGF1-4 (mouse, UniProt Q9QXX0 34-377); test: ELISA (screening, FIG. 8)
T1 construct: also called murine Jagged1; mouse Jagged1

[2] = target: T2, Human Jag2-DSL-EGF1-4 (human, UniProt Q9Y219 24-388); test: ELISA on human Jagged2 (Jag-2 bars), OD450 nm
T2 construct: also called human Jagged2; hJag2
T2 sequence: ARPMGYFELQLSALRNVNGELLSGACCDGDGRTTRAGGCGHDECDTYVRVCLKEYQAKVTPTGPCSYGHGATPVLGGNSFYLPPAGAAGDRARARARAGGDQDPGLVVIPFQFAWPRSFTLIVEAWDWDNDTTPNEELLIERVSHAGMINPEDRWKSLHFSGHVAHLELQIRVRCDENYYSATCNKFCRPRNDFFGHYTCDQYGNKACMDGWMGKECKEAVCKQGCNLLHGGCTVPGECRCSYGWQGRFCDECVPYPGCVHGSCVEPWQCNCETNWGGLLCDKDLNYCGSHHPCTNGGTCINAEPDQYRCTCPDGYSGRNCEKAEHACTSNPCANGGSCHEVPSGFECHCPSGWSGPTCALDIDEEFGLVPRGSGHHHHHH

[3] = target: T3, Murine Jag2-DSL-EGF1-4 (mouse, UniProt Q9QYE5 27-388); test: SPR (BIAcore-3000), IgG captured, Jag DSL-EGF1-4 as analyte
T3 construct: also called murine Jagged2; Mouse Jag2
T3 sequence: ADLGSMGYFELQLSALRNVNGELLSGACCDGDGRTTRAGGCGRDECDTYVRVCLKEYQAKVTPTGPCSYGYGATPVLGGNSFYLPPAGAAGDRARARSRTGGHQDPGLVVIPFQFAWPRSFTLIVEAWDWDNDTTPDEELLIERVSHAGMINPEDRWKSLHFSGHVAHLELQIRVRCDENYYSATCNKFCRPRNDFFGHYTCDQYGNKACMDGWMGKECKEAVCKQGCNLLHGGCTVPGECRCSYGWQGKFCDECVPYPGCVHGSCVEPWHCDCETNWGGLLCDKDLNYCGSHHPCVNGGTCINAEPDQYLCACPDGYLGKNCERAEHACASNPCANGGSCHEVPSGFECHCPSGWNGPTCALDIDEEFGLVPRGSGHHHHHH

[4] = target: T4, Human Jag1-DSL-EGF1-4 (human, UniProt P78504 34-377); test: SPR (BIAcore-3000), IgG captured, Jag DSL-EGF1-4 as analyte, 25 C
T4 construct: Secreted protein from BEVS cells; also called human Jagged1; hJag1; not shown: TEV protease cleavage site and 6-His tag at the C-terminus

[5] = target: T5, purified Jag1 extracellular domain protein fragment (Homo sapiens (Human), UniProt P78504 34-377); test: BIAcore (SPR), purified Jag1 extracellular domain fragment
T5 construct: not shown: C-terminal TEV protease cleavage site and 6-His tag of the human Jag1-DSL-EGF1-4 antigen

[6] = target: T4, Human Jag1-DSL-EGF1-4; test: ELISA on human Jagged1 (Jag-1 bars), OD450 nm
[7] = target: T1, Murine Jag1-DSL-EGF1-4; test: SPR (BIAcore-3000), IgG captured, Jag DSL-EGF1-4 as analyte
[8] = target: T2, Human Jag2-DSL-EGF1-4; test: SPR (BIAcore-3000), IgG captured, Jag DSL-EGF1-4 as analyte, 25 C
[9] = target: T3, Murine Jag2-DSL-EGF1-4; test: as above
[10] = target: T6, human Delta-like 4 (DSL-EGF1-4 fragment) (human, UniProt Q9NR61 27-365, limits assumed); test: SPR (BIAcore T200), IgG1 captured, ligand as analyte
T6 construct: domain: DSL-EGF1-4; Recombinant purified Notch ligand; also called human DLL4; hDLL4

[11] = target: T7, murine Delta-like 4 (DSL-EGF1-4 fragment) (mouse, UniProt Q9JI71 27-366, limits assumed); test: as above
T7 construct: domain: DSL-EGF1-4; Recombinant purified Notch ligand; also called murine DLL4; mouse DLL4

[12] = target: T2, Human Jag2-DSL-EGF1-4; test: SPR (BIAcore T200), IgG1 captured, ligand as analyte, 25 C
[13] = target: T3, Murine Jag2-DSL-EGF1-4; test: as above
[14] = target: T8, human Delta-like 1 (DSL-EGF1-4 fragment) (human, UniProt O00548 18-368, limits assumed); test: SPR (BIAcore T200), IgG1 captured, ligand as analyte; value marked * (asterisk not explained)
T8 construct: domain: DSL-EGF1-4; Recombinant purified Notch ligand; also called human DLL1; hDLL1
T8 sequence (looked up): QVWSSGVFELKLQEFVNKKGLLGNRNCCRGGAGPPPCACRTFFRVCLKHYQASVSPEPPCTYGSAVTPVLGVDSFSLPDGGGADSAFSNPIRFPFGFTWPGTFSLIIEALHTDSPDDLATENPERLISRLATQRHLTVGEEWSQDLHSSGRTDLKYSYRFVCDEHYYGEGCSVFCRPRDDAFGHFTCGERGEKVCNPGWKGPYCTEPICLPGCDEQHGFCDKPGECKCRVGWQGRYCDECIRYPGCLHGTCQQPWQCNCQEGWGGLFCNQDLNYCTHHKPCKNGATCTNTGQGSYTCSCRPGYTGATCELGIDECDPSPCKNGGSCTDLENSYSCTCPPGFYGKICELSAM

[15] = target: T9, murine Delta-like 1 (DSL-EGF1-4 fragment) (mouse, UniProt Q61483 18-367, limits assumed); test: as above
T9 construct: domain: DSL-EGF1-4; Recombinant purified Notch ligand; also called murine DLL1; mouse DLL1

[16] = target: T4, Human Jag1-DSL-EGF1-4; test: SPR (BIAcore T200), IgG1 captured, ligand as analyte, 25 C
[17] = target: T1, Murine Jag1-DSL-EGF1-4; test: as above
[18] = target: T2, Human Jag2-DSL-EGF1-4; test: ELISA, Notch ligand coated at 1 ug/ml, serial 3-fold dilutions of IgG, anti-human Fab-peroxidase, A630 [left panel, A-2]
[19] = target: T3, Murine Jag2-DSL-EGF1-4; test: as above
[20] = target: T8, human Delta-like 1 (DSL-EGF1-4 fragment); test: as above
[21] = target: T9, murine Delta-like 1 (DSL-EGF1-4 …); test: as above
[22] = target: T6, human Delta-like 4 (DSL-EGF1-4 fragment); test: as above
[23] = target: T7, murine Delta-like 4 (DSL-EGF1-4 …); test: as above

B1: Antibody A (antibody, human IgG1, V domains shown)
VH: EVQLVESGGGLVQPGGSLRLSCAASGFTFSNYGIHWVRQAPGKGLEWVGWITPDGGYTDYADSVKGRFTISADTSKNTAYLQMNSLRAEDTAVYYCARAGSWFAYWGQGTLVTVSS
VL: DIQMTQSPSSLSASVGDRVTITCRASQDVSTAVAWYQQKPGKAPKLLIYSASFLYSGVPSRFSGSGSGTDFTLTISSLQPEDFATYYCQQSYTTPPTFGQGTKVEIK
notes: Only the variable domains are tied to the tested antibody; also called parent antibody A; anti-Jagged1 antibody A
B1: binds [1]; no binding [2]; no binding (tested: 0.5 µM) [3]. It also gave a Kd [4] of 94 nM, a koff [4] of 0.0021 s⁻¹ and a kon [4] of 23000 M⁻¹ s⁻¹.

B2: Antibody A-1 S101A (antibody, V domains shown)
VH: B1 VH with S101A, W102L
VL: B1 VL with S91Y, P95A, P96T
notes: Mutant of A-1 expressed in mammalian cells; also called A-1 G100, S101A
With B2 the Kd [5] was 4.62 nM, the koff [5] was 0.000675 s⁻¹ and the kon [5] was 146000 M⁻¹ s⁻¹.

B3: Antibody A-1 (antibody, human IgG1, kappa, V domains shown)
VH: B1 VH with W102L
VL: DIQMTQSPSSLSASVGDRVTITCRASQDVSTAVAWYQQKPGKAPKLLIYSASFLYSGVPSRFSGSGSGTDFTLTISSLQPEDFATYYCQQYYTTATTFGQGTKVEIKR
B3 was tested, and the Kd [5] was 0.799 nM.

B4: Antibody B (antibody, V domains shown)
VH: EVQLVESGGGLVQPGGSLRLSCAASGFTFTSYDIHWVRQAPGKGLEWVGGISPADGDTDYANSVKGRFTISADTSKNTAYLQMNSLRAEDTAVYYCARNDYDVRSVGSGMDYWGQGTLVTVSS
VL: B1 VL
notes: Anti-Jagged2 antibody, human IgG1; also called parental antibody of antibody B-3
With B4 the binding result [6] was “no binding”, the binding result [7] was “no binding” and the Kd [8] was 1 nM. The koff [8] was 0.0026 s⁻¹, the kon [8] was 2.5e+06 M⁻¹ s⁻¹ and the Kd [9] was 1 nM. For the same binder, the koff [9] was 0.0026 s⁻¹ and the kon [9] was 2.5e+06 M⁻¹ s⁻¹.

B5: Antibody B-3 (antibody, human IgG1, V domains shown)
VH: B4 VH with S105F
VL: B1 VL with Y92F, T94A
notes: also called anti-Jagged2 antibody B-3; anti-Jag2 B-3
In the case of B5, the binding result [10] is reported as “no binding”, the binding result [11] is reported as “no binding” and the Kd [12] is reported as 0.041 nM. For the same binder, the koff [12] was 0.000188 s⁻¹, the kon [12] was 4.58e+06 M⁻¹ s⁻¹ and the Kd [13] was 0.0571 nM. For the same binder, the koff [13] was 4.4e-05 s⁻¹, the kon [13] was 771000 M⁻¹ s⁻¹ and the Kd [9] was 0.3 nM. The koff [9] was 0.000175 s⁻¹, the kon [9] was 580000 M⁻¹ s⁻¹ and the Kd [14] was 349 nM. For the same binder, the Kd [15] was 72.3 nM.

B6: Antibody A-2 (antibody, human IgG1, V domains shown)
VH: B1 VH with P53G, D54N, T58S
VL: B1 VL
notes: also called anti-Jagged1 antibody A-2
B6 gave a Kd [16] of 0.382 nM, a koff [16] of 9.23e-05 s⁻¹ and a kon [16] of 242000 M⁻¹ s⁻¹. For the same binder, the Kd [17] was 0.15 nM, the koff [17] was 5.77e-05 s⁻¹ and the kon [17] was 385000 M⁻¹ s⁻¹. It also gave a Kd [4] of 0.3 nM, a koff [4] of 7.1e-05 s⁻¹ and a kon [4] of 230000 M⁻¹ s⁻¹. B6: no binding [18]; no binding [19]; no binding [20]. B6: no binding [21]; no binding [22]; no binding [23].
